Numbering of substitutions follows the chain as printed.
T1: fibrin (Fb) network formed from human fibrinogen by thrombin (human, UniProt P02671 36-629; P02675 45-491; P02679 27-437, limits assumed)
T1 construct: Human fibrinogen (FIB 3; depleted of plasminogen, fibronectin and von Willebrand Factor), spiked with 1% AlexaFluor 488-labelled fibrinogen and clotted with thrombin and CaCl2; In the imaging experiments it is a cross-linked gel, not a soluble protein; also called Fb clot; Fb fibers
T1 sequence (looked up) 1: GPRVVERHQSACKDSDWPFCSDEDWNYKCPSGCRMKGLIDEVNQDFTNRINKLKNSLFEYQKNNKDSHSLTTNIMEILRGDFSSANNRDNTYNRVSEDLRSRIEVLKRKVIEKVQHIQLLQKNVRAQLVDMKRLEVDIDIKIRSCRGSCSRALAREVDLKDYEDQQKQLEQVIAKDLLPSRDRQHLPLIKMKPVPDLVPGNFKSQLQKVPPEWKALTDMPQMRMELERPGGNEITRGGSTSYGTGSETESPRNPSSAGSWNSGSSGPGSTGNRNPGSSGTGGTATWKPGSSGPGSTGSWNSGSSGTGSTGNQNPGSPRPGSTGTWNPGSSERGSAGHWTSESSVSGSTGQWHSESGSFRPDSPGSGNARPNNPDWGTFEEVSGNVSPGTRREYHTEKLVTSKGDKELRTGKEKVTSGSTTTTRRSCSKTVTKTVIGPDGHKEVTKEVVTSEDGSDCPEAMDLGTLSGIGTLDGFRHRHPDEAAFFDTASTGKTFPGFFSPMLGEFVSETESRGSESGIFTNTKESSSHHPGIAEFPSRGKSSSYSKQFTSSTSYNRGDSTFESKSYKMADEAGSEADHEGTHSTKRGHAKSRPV
T1 sequence (looked up) 2: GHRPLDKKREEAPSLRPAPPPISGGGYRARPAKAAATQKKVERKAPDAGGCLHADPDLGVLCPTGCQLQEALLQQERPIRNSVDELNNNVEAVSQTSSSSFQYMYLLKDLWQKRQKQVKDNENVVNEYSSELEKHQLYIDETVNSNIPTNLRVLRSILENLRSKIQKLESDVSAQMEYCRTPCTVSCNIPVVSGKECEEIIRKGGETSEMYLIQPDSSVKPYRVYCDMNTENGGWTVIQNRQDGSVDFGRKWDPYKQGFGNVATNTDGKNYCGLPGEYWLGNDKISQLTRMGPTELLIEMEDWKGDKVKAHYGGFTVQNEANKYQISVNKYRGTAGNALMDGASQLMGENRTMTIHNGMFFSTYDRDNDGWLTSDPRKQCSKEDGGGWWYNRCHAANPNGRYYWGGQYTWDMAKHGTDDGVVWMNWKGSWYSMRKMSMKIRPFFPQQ
T1 sequence (looked up) 3: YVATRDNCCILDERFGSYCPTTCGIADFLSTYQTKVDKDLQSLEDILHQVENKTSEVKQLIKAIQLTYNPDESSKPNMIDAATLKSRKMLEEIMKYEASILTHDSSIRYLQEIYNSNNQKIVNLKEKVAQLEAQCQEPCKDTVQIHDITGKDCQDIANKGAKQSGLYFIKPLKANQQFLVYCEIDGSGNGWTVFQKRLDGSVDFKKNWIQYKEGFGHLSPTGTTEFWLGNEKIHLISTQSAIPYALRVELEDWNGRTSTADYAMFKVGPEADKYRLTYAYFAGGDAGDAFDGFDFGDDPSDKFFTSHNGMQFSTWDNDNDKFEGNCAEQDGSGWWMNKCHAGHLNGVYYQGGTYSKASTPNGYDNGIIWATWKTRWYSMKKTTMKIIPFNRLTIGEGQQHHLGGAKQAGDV

B1: fluorescent hELP (f-hELP), hELP labelled with Atto647-N-hydroxysuccinimide (protein)
chain: MGHGVGVPGVGVPGAGVPGVGVPGVGVPGVGVPGVGVPGVGVPGVGVPGVGVPGEGVPGAGSGDQMMLPWPAVALSGVPGVGVPGVGVPGAGVPGVGVPGVGVPGVGVPGVGVPGVGVPGVGVPGVGVPGEGVPGAGSGDQMMLPWPAVALSGVPGVGVPGVGVPGAGVPGVGVPGVGVPGVGVPGVGVPGVGVPGVGVPGVGVPGEGVPGAGSGDQMMLPWPAVALSGVPGVGVPGVGVPGAGVPGVGVPGVGVPGVGVPGVGVPGVGVPGVGVPGVGVPGEGVPGAGSGDQMMLPWPAVALSGVPGVGVPGVGVPGAGVPGVGVPGVGVPGVGVPGVGVPGVGVPGVGVPGVGVPGEGVPGAGVPGVGVPGVGVPGAGVPGVGVPGVGVPGVGVPGVGVPGVGVPGVGVPGVGVPGEGVPGAGVPGVGVPGVGVPGAGVPGVGVPGVGVPGVGVPGVGVPGVGVPGVGVPGVGVPGEGVPGAGVPGVGVPGVGVPGAGVPGVGVPGVGVPGVGVPGVGVPGVGVPGVGVPGVGVPGEGVPGAGVPGVGVPGVGVPGAGVPGVGVPGVGVPGVGVPGVGVPGVGVPGVGVPGVGVPGEGVPGAGSGGSKGSSGVPGVGVPGVGVPGAGVPGVGVPGVGVPGVGVPGVGVPGVGVPGVGVPGVGVPGEGVPGAGSGGSKGSSGVPGVGVPGVGVPGAGVPGVGVPGVGVPGVGVPGVGVPGVGVPGVGVPGVGVPGEGVPGAGSGGSKGSSGVPGVGVPGVGVPGAGVPGVGVPGVGVPGVGVPGVGVPGVGVPGVGVPGVGVPGEGVPGAGSGGSKGSSGVPGWLDSLEFIA
modifications: chain 1 pos 1: N-terminal alpha-amine preferentially labelled with Atto647-NHS dye (about 0.95 dye per ELP), written M; minor labelling of K-block lysines is possible.
B2: fluorescent conELP (f-conELP), conELP labelled with Atto647-N-hydroxysuccinimide (other)
chain: B1 chain with Q65G, Q141G, Q217G, Q293G, K610G, K679G, K748G, K817G
modifications: chain 1 pos 1: N-terminal alpha-amine labelled with Atto647-NHS dye (about 0.95 dye per ELP), written M.
notes: also called f-conELPs; fluorescent-conELPs

Key:
[1] = molecular target: fibrin (Fb) network formed from human fibrinogen by thrombin (human) (UniProt P02671); assay: two-colour confocal fluorescence microscopy of Fb clots formed at 22 C, Coloc2 in ImageJ
[2] = molecular target: fibrin (Fb) network formed from human fibrinogen by thrombin (human) (UniProt P02671); assay: two-colour confocal fluorescence microscopy of Fb clots formed at 37 C, Coloc2 in ImageJ
[3] = molecular target: T1, fibrin (Fb) network formed from human …; assay: two-colour confocal fluorescence microscopy of Fb clots formed at 22 C, colocalisation (Coloc2)
Text: The inventors N-terminally labelled hELPs and conELPs with Atto647-N-hydroxysuccinimide (red channel) and confirmed they were still cross-linked by FXIIIa. Fluorescent-hELPs (f-hELPs) or fluorescent-conELPs (f-conELPs) were then integrated into Fb clots spiked with 1% AlexaFluor 488-labelled fibrinogen (Fg-488, green channel). The inventors used two color confocal fluorescence microscopy to characterize hELP and Fb network morphology, degree of hELP and Fb colocalization, and the influence of hELP phase transition on clot architecture. […] The inventors observed little to no fluorescence intensity in the red channel when only HEPES buffer or f-conELP were added during formation of Fb networks (FIG. 3a, left, HEPES & conELP).
To quantify hELP and Fb spatial colocalization, the inventors used Coloc2 in ImageJ to calculate Pearson's correlation coefficients (PCC) (J. Adler, I. Parmryd, Cytom. Part A 2010, 77, 733). For f-hELP-Fb clots at 22° C., a PCC between f-hELP and Fb channels of 0.69±0.1 indicated high spatial correlation. For f-conELP-Fb clots, a PCC value of 0.05±0.09 indicated no spatial correlation (FIG. 3b).

Binder | Pearson's correlation coefficient (PCC) between f-hELP and Fb channels [1] | Pearson's correlation coefficient (PCC) between ELP and Fb channels [2] | binding result [3]
B1 | 0.69 | 0.163 | –
B2 | – | – | no binding (tested: 30 µM f-conELP)
